molecular target: CD11b, cellular receptor of LukAB, on PMNs (HL-60 cells differentiated with DMSO) (human (endogenous in HL-60)) (UniProt P11215)

| Substance | reversal of the toxicity of 0.42 nM LukABWT on PMNs by the mutant (0.4 pM-13 nM), set up as competition with LukABWT for receptor binding; mutant/WT molar ratio at 50% reversal (mutant/WT molar ratio) |
| --- | --- |
| LukAB heterodimer LukA D39A / LukB R23E (complex) | 0.17 |
| LukAB heterodimer LukA D39R / LukB R23E (complex) | > 30 |
| LukAB heterodimer LukA wild type / LukB K12A/K19A/R23A (complex) | > 30 |
| LukAB heterodimer LukA wild type / LukB R23E (complex) | 0.64 |
| LukAB heterodimer LukA wild type / LukB with the N-terminal 30 residues of HlgB (complex) | 0.18 |

— paper PMC6628420
